Assay results reported in the supplement of paper PMC7125110.
± gives the standard error. Variants at the floor of the assay were thinned out.

B1: glmS ribozyme (parent)
chain: AUAAAAGCGCCAGAACUACAGAAAUGUAGUUGACGAGGAGGAGGUUUAUCGAAUUUUCGGCGGAUGCCUCCAAA

Experiments:
Details in all cases: with glucosamine-6-phosphate
[1] = variants of: B1; assay: self-cleavage kobs at 640 uM GlcN6P; higher = faster cleavage; RNA array
Procedure, shortened: (§1)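 Ribozyme variants carrying barcodes were transcribed in situ on sequenced MiSeq chips by E. coli RNA polymerase and tracked at 37 °C with a hybridised Cy3 probe. They were exposed to 40 μM to 10 mM glucosamine-6-phosphate in HEPES/KCl/Mg(OAc)2 buffer. kobs came from exponential decay fits of normalised per-tile medians, and kcat and KM from weighted Michaelis–Menten fits.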

[2] = variants of: B1; assay: self-cleavage kobs at 2500 uM GlcN6P; higher = faster cleavage; RNA array
Procedure, shortened: as §1

[3] = variants of: B1; assay: self-cleavage kobs at 10000 uM GlcN6P; higher = faster cleavage; RNA array
Procedure, shortened: as §1

## A6U U49C U54A A64U C68U
[1]
  self-cleavage kobs at 640 uM GlcN6P: < 1e-05 s⁻¹

## A6U C50A G60A C70A
[1]
  self-cleavage kobs at 640 uM GlcN6P: 0.000136 ± 5e-05 s⁻¹

## G40C G41U G43U
[1]
  self-cleavage kobs at 640 uM GlcN6P: < 1e-05 s⁻¹
[2]
  self-cleavage kobs at 2500 uM GlcN6P: < 1e-05 s⁻¹

## C11U A15C A33G G44U U49C A64C C70U
[1]
  self-cleavage kobs at 640 uM GlcN6P: < 1e-05 s⁻¹
[2]
  self-cleavage kobs at 2500 uM GlcN6P: < 1e-05 s⁻¹

## C8A C10A A42G G60U
[1]
  self-cleavage kobs at 640 uM GlcN6P: < 1e-05 s⁻¹
[2]
  self-cleavage kobs at 2500 uM GlcN6P: < 1e-05 s⁻¹

## G9U U47G
[1]
  self-cleavage kobs at 640 uM GlcN6P: < 1e-05 s⁻¹
[3]
  self-cleavage kobs at 10000 uM GlcN6P: < 1e-05 s⁻¹

## A12C G38U C67U
[1]
  self-cleavage kobs at 640 uM GlcN6P: < 1e-05 s⁻¹

## A6C C8U G38C G51C
[1]
  self-cleavage kobs at 640 uM GlcN6P: < 1e-05 s⁻¹
[2]
  self-cleavage kobs at 2500 uM GlcN6P: < 1e-05 s⁻¹

## A6G G7A C10U G44C G60C
[1]
  self-cleavage kobs at 640 uM GlcN6P: < 1e-05 s⁻¹
[2]
  self-cleavage kobs at 2500 uM GlcN6P: < 1e-05 s⁻¹

## A36G G40U A52U U65C
[1]
  self-cleavage kobs at 640 uM GlcN6P: < 1e-05 s⁻¹

## G9U C10A A42U G51A U54G G60C
[1]
  self-cleavage kobs at 640 uM GlcN6P: < 1e-05 s⁻¹

## A48G A52U G59U
[1]
  self-cleavage kobs at 640 uM GlcN6P: < 1e-05 s⁻¹
[2]
  self-cleavage kobs at 2500 uM GlcN6P: < 1e-05 s⁻¹

## G9U G32C A33G A39G A48U C61U G63U A64U
[1]
  self-cleavage kobs at 640 uM GlcN6P: < 1e-05 s⁻¹
[2]
  self-cleavage kobs at 2500 uM GlcN6P: < 1e-05 s⁻¹

## G40U C50G
[1]
  self-cleavage kobs at 640 uM GlcN6P: < 1e-05 s⁻¹
[2]
  self-cleavage kobs at 2500 uM GlcN6P: < 1e-05 s⁻¹
[3]
  self-cleavage kobs at 10000 uM GlcN6P: < 1e-05 s⁻¹

## U31C G43A
[1]
  self-cleavage kobs at 640 uM GlcN6P: < 1e-05 s⁻¹
[2]
  self-cleavage kobs at 2500 uM GlcN6P: < 1e-05 s⁻¹

## G63C U69G
[1]
  self-cleavage kobs at 640 uM GlcN6P: 5.78e-05 ± 2.2e-05 s⁻¹

## U56C U57C
[1]
  self-cleavage kobs at 640 uM GlcN6P: 7.5e-05 ± 2.2e-05 s⁻¹
[2]
  self-cleavage kobs at 2500 uM GlcN6P: 8.12e-05 ± 1.7e-05 s⁻¹

## C16A G44C U54C
[1]
  self-cleavage kobs at 640 uM GlcN6P: < 1e-05 s⁻¹

## C10U G13A U45G U49C
[1]
  self-cleavage kobs at 640 uM GlcN6P: < 1e-05 s⁻¹

## A52C U54G
[1]
  self-cleavage kobs at 640 uM GlcN6P: < 1e-05 s⁻¹

## G7C A15U U45A
[1]
  self-cleavage kobs at 640 uM GlcN6P: < 1e-05 s⁻¹
[2]
  self-cleavage kobs at 2500 uM GlcN6P: < 1e-05 s⁻¹

## C8U U30G U55C
[1]
  self-cleavage kobs at 640 uM GlcN6P: < 1e-05 s⁻¹
[2]
  self-cleavage kobs at 2500 uM GlcN6P: < 1e-05 s⁻¹

## A12C A14G G60U
[1]
  self-cleavage kobs at 640 uM GlcN6P: < 1e-05 s⁻¹

## G7C C10A G13A A33C
[1]
  self-cleavage kobs at 640 uM GlcN6P: < 1e-05 s⁻¹
[2]
  self-cleavage kobs at 2500 uM GlcN6P: < 1e-05 s⁻¹
[3]
  self-cleavage kobs at 10000 uM GlcN6P: < 1e-05 s⁻¹

## G29U A33C G41A U49C G60A U65C
[1]
  self-cleavage kobs at 640 uM GlcN6P: < 1e-05 s⁻¹

## U55C C61G G62C
[1]
  self-cleavage kobs at 640 uM GlcN6P: < 1e-05 s⁻¹

## A14U U30G U54C
[1]
  self-cleavage kobs at 640 uM GlcN6P: 0.000624 ± 0.00011 s⁻¹
[2]
  self-cleavage kobs at 2500 uM GlcN6P: 0.00185 ± 0.00046 s⁻¹

## G9U C34U A39G
[1]
  self-cleavage kobs at 640 uM GlcN6P: < 1e-05 s⁻¹

## A12U G40C C61A
[1]
  self-cleavage kobs at 640 uM GlcN6P: < 1e-05 s⁻¹

## G32A G44U C67G
[1]
  self-cleavage kobs at 640 uM GlcN6P: 0.000431 ± 0.0001 s⁻¹
[2]
  self-cleavage kobs at 2500 uM GlcN6P: 0.00127 ± 0.00059 s⁻¹

## A14U G40C U69C C71U
[1]
  self-cleavage kobs at 640 uM GlcN6P: < 1e-05 s⁻¹

## G7C A15C A39U A42C U57A
[1]
  self-cleavage kobs at 640 uM GlcN6P: < 1e-05 s⁻¹
[2]
  self-cleavage kobs at 2500 uM GlcN6P: < 1e-05 s⁻¹

## C8G A15C C16U
[1]
  self-cleavage kobs at 640 uM GlcN6P: < 1e-05 s⁻¹

## A12C A33U A52G U54G
[1]
  self-cleavage kobs at 640 uM GlcN6P: < 1e-05 s⁻¹

## U30A G38U
[1]
  self-cleavage kobs at 640 uM GlcN6P: < 1e-05 s⁻¹
[2]
  self-cleavage kobs at 2500 uM GlcN6P: < 1e-05 s⁻¹

## G37U G62U
[1]
  self-cleavage kobs at 640 uM GlcN6P: < 1e-05 s⁻¹

## G37A U46G C71U
[1]
  self-cleavage kobs at 640 uM GlcN6P: 6.59e-05 ± 3.1e-05 s⁻¹

## G44A U55A G59U
[1]
  self-cleavage kobs at 640 uM GlcN6P: < 1e-05 s⁻¹
[2]
  self-cleavage kobs at 2500 uM GlcN6P: < 1e-05 s⁻¹

## G13A A48U U54C
[1]
  self-cleavage kobs at 640 uM GlcN6P: < 1e-05 s⁻¹

## A14U G44U U54A G59C C68U
[1]
  self-cleavage kobs at 640 uM GlcN6P: < 1e-05 s⁻¹
[2]
  self-cleavage kobs at 2500 uM GlcN6P: < 1e-05 s⁻¹

## A6C A33C A48C G60U
[1]
  self-cleavage kobs at 640 uM GlcN6P: < 1e-05 s⁻¹

## A6U C50G U55A C71U
[1]
  self-cleavage kobs at 640 uM GlcN6P: 0.00151 ± 0.00047 s⁻¹

## C8U G43A C58G
[1]
  self-cleavage kobs at 640 uM GlcN6P: < 1e-05 s⁻¹
[2]
  self-cleavage kobs at 2500 uM GlcN6P: < 1e-05 s⁻¹

## G37U A39C A64G U69G
[1]
  self-cleavage kobs at 640 uM GlcN6P: < 1e-05 s⁻¹

## C19A A33U C50G U56C C58U G63U C68G
[1]
  self-cleavage kobs at 640 uM GlcN6P: 0.000599 ± 0.00016 s⁻¹

## G35A U46G A48G C68A C71U
[1]
  self-cleavage kobs at 640 uM GlcN6P: < 1e-05 s⁻¹
[2]
  self-cleavage kobs at 2500 uM GlcN6P: < 1e-05 s⁻¹

## A15C G44C C50U
[1]
  self-cleavage kobs at 640 uM GlcN6P: < 1e-05 s⁻¹
[2]
  self-cleavage kobs at 2500 uM GlcN6P: < 1e-05 s⁻¹

## A39U U56A A72U
[1]
  self-cleavage kobs at 640 uM GlcN6P: 0.000916 ± 0.00022 s⁻¹
[2]
  self-cleavage kobs at 2500 uM GlcN6P: 0.00356 ± 0.00049 s⁻¹

## A12G G44U C70G
[1]
  self-cleavage kobs at 640 uM GlcN6P: < 1e-05 s⁻¹
[2]
  self-cleavage kobs at 2500 uM GlcN6P: < 1e-05 s⁻¹

## G40C U65G
[1]
  self-cleavage kobs at 640 uM GlcN6P: 9.16e-05 ± 3.6e-05 s⁻¹
[2]
  self-cleavage kobs at 2500 uM GlcN6P: 0.00036 ± 0.00012 s⁻¹
[3]
  self-cleavage kobs at 10000 uM GlcN6P: 0.000854 ± 0.00025 s⁻¹

## G13A C16G G59C C68A
[1]
  self-cleavage kobs at 640 uM GlcN6P: 0.000133 ± 3.8e-05 s⁻¹

## A15C G38U C58A
[1]
  self-cleavage kobs at 640 uM GlcN6P: < 1e-05 s⁻¹

## G13A U45C G66A
[1]
  self-cleavage kobs at 640 uM GlcN6P: 0.000124 ± 3e-05 s⁻¹
[2]
  self-cleavage kobs at 2500 uM GlcN6P: 9.89e-05 ± 2.4e-05 s⁻¹
[3]
  self-cleavage kobs at 10000 uM GlcN6P: 0.000343 ± 0.00011 s⁻¹

## G9C A14G G37U G62C C71A
[1]
  self-cleavage kobs at 640 uM GlcN6P: < 1e-05 s⁻¹
[2]
  self-cleavage kobs at 2500 uM GlcN6P: < 1e-05 s⁻¹

## U49C C50A C70A
[1]
  self-cleavage kobs at 640 uM GlcN6P: 7.42e-05 ± 3.6e-05 s⁻¹

## A14U U47C C58G C68G
[1]
  self-cleavage kobs at 640 uM GlcN6P: 5.55e-05 ± 1.6e-05 s⁻¹
[2]
  self-cleavage kobs at 2500 uM GlcN6P: 0.000171 ± 4e-05 s⁻¹

## A48U C50G C70U
[1]
  self-cleavage kobs at 640 uM GlcN6P: 9.42e-05 ± 2.9e-05 s⁻¹

## A33U A48C G63A
[1]
  self-cleavage kobs at 640 uM GlcN6P: < 1e-05 s⁻¹
[2]
  self-cleavage kobs at 2500 uM GlcN6P: < 1e-05 s⁻¹

## U30G A42G G66A C71A
[1]
  self-cleavage kobs at 640 uM GlcN6P: 0.00018 ± 5.9e-05 s⁻¹
[2]
  self-cleavage kobs at 2500 uM GlcN6P: 0.000159 ± 4.2e-05 s⁻¹

## A6G G29C G35U A42C C58G C68G
[1]
  self-cleavage kobs at 640 uM GlcN6P: < 1e-05 s⁻¹

## A14U A64U U65A C67G C71G
[1]
  self-cleavage kobs at 640 uM GlcN6P: 7.6e-05 ± 2.4e-05 s⁻¹
[2]
  self-cleavage kobs at 2500 uM GlcN6P: 4.74e-05 ± 2.1e-05 s⁻¹

## C34G U69G
[1]
  self-cleavage kobs at 640 uM GlcN6P: 0.000107 ± 2e-05 s⁻¹
[2]
  self-cleavage kobs at 2500 uM GlcN6P: 8.27e-05 ± 2.5e-05 s⁻¹

## C8G G13C G59A U69G
[1]
  self-cleavage kobs at 640 uM GlcN6P: < 1e-05 s⁻¹

## A52G U54A C68U
[1]
  self-cleavage kobs at 640 uM GlcN6P: 6.73e-05 ± 2e-05 s⁻¹

## G51U A53U U54A
[1]
  self-cleavage kobs at 640 uM GlcN6P: < 1e-05 s⁻¹
[3]
  self-cleavage kobs at 10000 uM GlcN6P: < 1e-05 s⁻¹

## A42U G44U C61G
[1]
  self-cleavage kobs at 640 uM GlcN6P: < 1e-05 s⁻¹
[2]
  self-cleavage kobs at 2500 uM GlcN6P: < 1e-05 s⁻¹

## G13C G29U G41U C68A C70A
[1]
  self-cleavage kobs at 640 uM GlcN6P: < 1e-05 s⁻¹

## U2C G32C G60U G63C
[1]
  self-cleavage kobs at 640 uM GlcN6P: < 1e-05 s⁻¹
